To fix the notation:
B1: HDV Ribozyme (parent)
chain: GGCCGGCAUGGUCCCAGCCUCCUCGCUGGCGCCGGCUGGGCAACAUUCCGAGGGGACCGUCCCCUCGGUAAUGGCGAAUGGGACCCA

In the data set the parent is B1. Description: self-cleavage, relative activity (ratio to wild type); higher = more cleavage; co-transcriptional.
C7U C19A: the self-cleavage is 0.157. Under C30U C58U stands 0.743.

On to G6C G82A, for which the self-cleavage came out at 0. In the case of U46G C84A, the self-cleavage turned out to be 0.554. For C26A U72C, the self-cleavage was 0.867.

As to G82U C86G, the self-cleavage was found to be 0.39. As for U23A C57U, the figure is 0.812; as for C61U G81A, 0.44.

As for G28C U60A, the self-cleavage is 0.104. In the case of C15U G54C, the self-cleavage was 1. As for U47A U60A, the figure is 0.851.

With A43C U69C, the self-cleavage is 0.582. As for G1C U9A, the figure is 0.0978; as for U47A A78U, 0.295. As for G2A A70G, the figure is 0.0511; as for G17C G52C, 0.19; as for G31A G40U, 0.112. Under G2A G73A stands 0.0742; under G38C C57A, 0.102; under G31C A78G, 0.302. Consider C24A A77C, for which the self-cleavage is 0.185. As for G39A C58G, the figure is 0.363; as for C4G C33U, 0.123. As for G11U C85U, the self-cleavage is 0.767. For G59A C84U, the self-cleavage is 0.73. Under A8G C84A stands 0.598; under C26A C30A, 0.491. Take C41G U72A: the self-cleavage was found to be 0.499. For G2A G80C, the self-cleavage worked out at 0.0378. Take G29C C66G: the self-cleavage was 0. With C41U C64U, the self-cleavage was 0.892. Under U12G C58G stands 0.499; under A45C U65G, 0.745; under G10A G76U, 0.997. Under G10A G76A stands 1.04; under G5A G31U, 0.0332; under C7U G11A, 0.423. As for G5U G25C, the figure is 0; as for C13G U46G, 0.0554. For the variant G6U C49A, the self-cleavage worked out at 0.582. As for G10U C41U, the figure is 0.583. As for G28A G34A, the self-cleavage came to 0.175.

On to C57A C62U, for which the self-cleavage was 1.06. Under G39C G82A stands 0.0308. Under U23A U27C stands 0.575; under C21A G74A, 0.0536; under G68U C85A, 0.707. For the variant G73C G76A, the self-cleavage turned out to be 0.604.

On to G55C C63G, for which the self-cleavage came to 0.888. For G10U G74C, the self-cleavage was 0.138. As for G40A G76U, the self-cleavage is 0.843. Consider G35U G81C, for which the self-cleavage is 0.133. As for U9C G11A, the figure is 0.0755. U20G G38U: the self-cleavage turned out to be 0.0573. Under G35U C41A stands 0.3; under G17U G59A, 0.465; under C14U G76A, 1.49.

For the variant G28U C63G, the self-cleavage was determined as 0.262. For G81A A83U, the self-cleavage came out at 0.187. As for C36U C48A, the figure is 0.623. Under G2U C26G stands 0.0627; under G11C C32U, 0.192. On to U23C U60G, for which the self-cleavage worked out at 0.798.

As to G67U C86A, the self-cleavage was determined as 1. In the case of C30G U79A, the self-cleavage worked out at 0.156. As for U27C A56C, the figure is 0.612; as for G35C U46G, 0.0831; as for G29C U69A, 0.162. With C13A A43U, the self-cleavage was found to be 0.154. With G38C G53C, the self-cleavage is 0.295.

As to C32A A87U, the self-cleavage is 0.183. As for C30G A70G, the figure is 0.0739.

Take G17U G34A: the self-cleavage was 0.13. Turning to C58A C61U, the self-cleavage was found to be 0.972. Under G73A C85G stands 0.703; under C7G C85A, 0.302; under G34C A45U, 0.0378. For the variant C30G C85G, the self-cleavage amounted to 0.0405. Regarding C33U U65G, the self-cleavage stood at 1.14. On to C33U U65C, for which the self-cleavage is 0.969. Under C19G A42G stands 0. Under C48G C66U stands 0.868; under C21U G31U, 0.173. Turning to C21U G67U, the self-cleavage was 0.174. Consider G55A A70U, for which the self-cleavage came to 0.831. Under C4A G29C stands 0.0369; under U12C C61G, 0.32. Under G38C G73C stands 0.284; under C24A C84U, 0.587; under C41U A70C, 0.803. As for C48U U65A, the figure is 0.876; as for C26A G50A, 0.881. Consider C30A A70U, for which the self-cleavage is 0.62.

As for U46G G59A, the self-cleavage came to 1.09. Under C3U G17U stands 0.193; under G39U G73A, 0.249.

For G28C G50A, the self-cleavage amounted to 0.151. For G17A G25U, the self-cleavage was 0.0277. As for C32U U72C, the figure is 0.532. For G53A G73C, the self-cleavage stood at 0.265. On to C44G C62A, for which the self-cleavage is 0.875. As for C30G C36U, the self-cleavage came to 0.0443. On to G5A G35U, for which the self-cleavage was 0.0396. As for A70G C85U, the figure is 1.01; as for A51G G76C, 0.831. As for C19G A83C, the figure is 0; as for C64U A70U, 1.01; as for G2C G81C, 0.0583. Take C61G U65A: the self-cleavage turned out to be 0.639. A43C G50C: the self-cleavage came to 0.284.

Take C15U C21G: the self-cleavage was determined as 0.0898. Take C18U A71C: the self-cleavage amounted to 0.259.

For the variant C26U U46A, the self-cleavage was 0.731. On to C3U C86A, for which the self-cleavage was 0.923.

Take G82A: the self-cleavage was found to be 0.418. Under U60G U69G stands 0.755; under G50A G74C, 0.242; under U27G C84U, 0.612. As for G34U G59C, the figure is 0.142; as for G6A U60C, 0.789. Under C32G U60C stands 0.0723. Take U47A C49A: the self-cleavage amounted to 0.886. Under G50U G73C stands 0.268. C33U C49A: the self-cleavage was 0.946. For A83C C84G, the self-cleavage amounted to 0.231.

Turning to G1A G59C, the self-cleavage turned out to be 0.229. Under C41A C66G stands 0.91.

Regarding C24A A87G, the self-cleavage was 0.7. In the case of G29U U69A, the self-cleavage came to 0.0875. As for A16U C32A, the figure is 0.177. Under C36U C44G stands 0.231; under C49A G68C, 0.849; under G5A C84G, 0.0875. As for A43U A78G, the self-cleavage was determined as 0.262. In the case of U20G U60C, the self-cleavage worked out at 0.111. As for G1U C4G, the figure is 0.634; as for C22G C64U, 0.0536. With C58U C84G, the self-cleavage amounted to 0.665. As for C32A U79A, the figure is 0.121.

For the variant G6A U79A, the self-cleavage came out at 0.322. In the case of C66G A83G, the self-cleavage came out at 0.72.

Regarding C26G A83U, the self-cleavage was determined as 0.917. Regarding C33G G53C, the self-cleavage came to 0.156. As for C66G C86G, the figure is 1.07; as for G74C A77G, 0.145; as for G53A C62G, 0.511.

Turning to A71U U79G, the self-cleavage came out at 0.831.

As to C49U G80C, the self-cleavage turned out to be 0.143. As to G80C G81A, the self-cleavage stood at 0.089. Under U46G G74C stands 0.201; under C61G G82U, 0.271. For the variant G38C G52A, the self-cleavage worked out at 0.322. Under G10C G67A stands 0.712; under C22G U69A, 0.095.

For the variant C30U C86G, the self-cleavage was 0.733. In the case of U65C G73U, the self-cleavage came to 0.554. Under A16C A42C stands 0.192; under C36U G50A, 0.673; under C15U C36A, 0.208. In the case of U27A G74A, the self-cleavage is 0.0437. Under C26A G68U stands 0.929; under G50C A77U, 0.554. Under U20A C48G stands 0; under A56C C61A, 1.13; under C7U A51U, 1.13. As for C18G C64G, the figure is 0.156; as for A56C G76C, 1.06.

For the origin of these results see the RNAGym collection of RNA variant scans (doi:10.7554/elife.80360).
